Data as given in US20230250156A1.
Several values for one entry are separate records, joined by “and”; a condition that tells them apart may be missing. Equal entries are not always repeated.

Molecular target: SARS-CoV-2 RBD protein (SARS-CoV-2) (UniProt P0DTC2)

ACE2 Ig-TD Quad (ACE2(18-615) Ig-TD) (Fc fusion)
IC50: 0.45 nM and 0.449 nM
